Legend:
Type in all cases: in vivo
soybean T1 plants [1] = assay: Topramezone tolerance of transgenic soybean T1 plants; conditions: different concentrations
Description: T1 transformants were initially selected from the untransformed seeds using a glufosinate selection scheme. […] The degree of damage caused by the herbicide was measured for each plant according to the proportion of bleached leaf area (the proportion of bleached leaf area=bleached leaf area/total leaf area×100%) 7 days after spraying (7 DAT): the case where there is basically no bleached phenotype is defined as grade 0, the case where the proportion of bleached leaf area is less than 50% is defined as grade 1, the case where the proportion of bleached leaf area is more than 50% is defined as grade 2, and the case where the proportion of bleached leaf area is 100% grade is defined as grade 3.
The soybean T1 plants into which the SbHPPD-02 nucleotide sequence was introduced, soybean T1 plants into which the SbHPPDm-F372A-02 nucleotide sequence was introduced, soybean T1 plants into which the SbHPPDm-F383W-02 nucleotide sequence was introduced, soybean T1 plants into which the SbHPPDm-F372A-F383W-02 nucleotide sequence was introduced, soybean T1 plants into which the control vector DBN11726N nucleotide sequence was introduced, and wild-type soybean plants (V3-V4 at seedling stage) were sprayed with topramezone at three different concentrations (i.e., 25 g ai/ha (one-fold field concentration, 1×). […] According to the method in point 6 of Example 1, after 7 days of spraying (7 DAT), the damage degree of each plant by the herbicide was statistically analyzed, and the scoring and resistance evaluation were carried out accordingly. […]

[2] = test system: Arabidopsis thaliana T1 plants; assay: Isoxaflutole tolerance of transgenic Arabidopsis thaliana T1 plants (spray, bleached leaf area grade, damage score); design: Scores (pesticide damage): scale not given here; conditions: spray, Arabidopsis thaliana T1 plants; for Classification and statistics of the grade of pesticide damage: Grade 0 (number of plants) / Classification and statistics of the grade of pesticide damage: Grade 1 (number of plants) / Classification and statistics of the grade of pesticide damage: Grade 2 (number of plants) / Classification and statistics of the grade of pesticide damage: Grade 3 (number of plants): 16 plants
Procedure, shortened: (§1)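 T1 transformants selected by glufosinate; 18-day-old plants, with empty-vector and wild-type controls, sprayed with topramezone (25–200 g ai/ha), isoxaflutole (35–280 g ai/ha) or mesotrione (52.5–420 g ai/ha), water as 0×. Bleached leaf area fraction scored at 7 DAT as grades 0–3.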

[3] = test system: Arabidopsis thaliana T1 plants; assay: Mesotrione tolerance of transgenic Arabidopsis thaliana T1 plants (spray, bleached leaf area grade, damage score); design: Scores: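 damage score 0-100 computed as Σ(N×S)/(T×M)×100 over grades 0-3 with higher meaning more damage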; conditions: Arabidopsis thaliana T1 plants; for Grade 0 (classification and statistics of the grade of pesticide damage; number of plants) / Grade 1 (classification and statistics of the grade of pesticide damage; number of plants) / Grade 2 (classification and statistics of the grade of pesticide damage; number of plants) / Grade 3 (classification and statistics of the grade of pesticide damage; number of plants): 16 plants
Procedure, shortened: as §1

soybean T1 plants [4] = assay: Isoxaflutole tolerance of transgenic soybean T1 plants; conditions: different concentrations
[5] = test system: Arabidopsis thaliana T1 plants; assay: Topramezone tolerance of transgenic Arabidopsis thaliana T1 plants (spray, bleached leaf area grade, damage score); conditions: 7 DAT, Table 4; for Classification and statistics of the grade of pesticide damage: Grade 0 / Classification and statistics of the grade of pesticide damage: Grade 1 / Classification and statistics of the grade of pesticide damage: Grade 2 / Classification and statistics of the grade of pesticide damage: Grade 3: number of plants; for Scores: pesticide damage score 0-100
Procedure, shortened: as §1

soybean T1 plants [6] = assay: Mesotrione tolerance of transgenic soybean T1 plants; conditions: different concentrations
[7] = isoxaflutole 35 g ai/ha (0.5x field concentration)
[8] = isoxaflutole 70 g ai/ha (1x field concentration)

B1: SbHPPDm-F383W-02: nucleotide sequence encoding Sorghum bicolor HPPD with F383W; vector DBN11760 (nucleic acid)
DNA: ATGCCGCCCACTCCAACAACTGCTGCTGCGACGGGAGCAGCTGTCGCCGCTGCTTCTGCTGAGCAGGCTGCCTTCAGGCTCGTCGGGCACAGAAATTTTGTTCGTGTAAATCCAAGGAGTGATAGGTTCCACACCTTGGCTTTTCACCACGTGGAGTTGTGGTGTGCTGATGCAGCCTCGGCAGCGGGGCGCTTCTCGTTTGGTCTCGGTGCTCCGCTCGCCGCAAGATCTGATCTTAGCACTGGAAACACAGCGCATGCCTCCCTGCTCCTGCGCTCTGGCGCGCTGGCGTTCCTCTTCACGGCGCCATATGCTCACGGCGCCGACGCCGCCACCGCGTCATTGCCGTCTTTTAGTGCAGCCGAAGCAAGAAGATTTGCAGCAGACCACGGCCTCGCCGTAAGGGCCGTGGCCTTACGTGTCGCCGATGCCGAAGATGCTTTCCGCGCCTCTGTAGCAGCTGGAGCAAGGCCAGCATTTGAACCTGTTGAATTGGGGTTAGGATTCCGTCTTGCAGAAGTTGAGCTTTATGGCGACGTTGTTTTGAGATACGTTTCATATCCTGATGACGCTGACGCTAGCTTCTTGCCTGGTTTTGTGGGGGTGACATCACCTGGGGCAGCAGATTATGGTCTCAGGCGGTTTGATCATATTGTTGGAAACGTTCCTGAACTCGCGCCGGCGGCAGCCTACTTCGCCGGTTTCACTGGGTTTCATGAATTTGCTGAATTCACAGCCGAGGATGTCGGCACCACCGAGAGTGGACTGAACTCCATGGTGCTGGCCAACAATGCAGAGAATGTCCTTCTTCCCTTGAATGAACCAGTTCATGGAACAAAAAGGCGTTCCCAAATACAAACATACCTCGACCATCATGGTGGACCAGGCGTTCAGCATATGGCTCTCGCTAGTGACGATGTTCTACGAACCCTGCGAGAGATGCAGGCGCGGTCTGCAATGGGAGGATTTGAGTTCATGGCACCTCCTGCCCCTGAATATTATGATGGTGTTCGGAGAAGGGCAGGTGATGTGCTAACTGAAGCTCAAATCAAGGAGTGCCAGGAGCTTGGCGTGCTGGTCGATCGGGATGATCAAGGTGTGCTTCTGCAGATTTTTACTAAACCAGTGGGTGACCGCCCCACGCTGTGGCTAGAGATCATCCAGAGAATAGGGTGCATGGAGAAGGACGAAAAAGGACAAGAGTACCAGAAGGGAGGTTGTGGCGGCTTTGGAAAAGGGAACTTCTCCCAATTATTCAAGTCAATTGAAGACTATGAAAAGAGTTTGGAGGCTAAGCAAGCTGCAGCCGCCCAGGGCAGCTGA
modifications: SbHPPDm-F383W-02 Nucleotide Sequence
notes: vector DBN11760
- tolerance to HPPD-inhibitor herbicides (in words): topramezone (soybean T1 plants [1]): different degrees of tolerance
- Resistance evaluation [2, 7]: Poorly
- Scores (pesticide damage) [2, 7]: 65
- Classification and statistics of the grade of pesticide damage: Grade 0 (number of plants) [2, 7]: 0
- Classification and statistics of the grade of pesticide damage: Grade 1 (number of plants) [2, 7]: 1
- Classification and statistics of the grade of pesticide damage: Grade 2 (number of plants) [2, 7]: 15
- Classification and statistics of the grade of pesticide damage: Grade 3 (number of plants) [2, 7]: 0
- Resistance evaluation [2, 8]: Non-resistant
- Scores (pesticide damage) [2, 8]: 100
- Classification and statistics of the grade of pesticide damage: Grade 0 (number of plants) [2, 8]: 0
- Classification and statistics of the grade of pesticide damage: Grade 1 (number of plants) [2, 8]: 0
- Classification and statistics of the grade of pesticide damage: Grade 2 (number of plants) [2, 8]: 0
- Classification and statistics of the grade of pesticide damage: Grade 3 (number of plants) [2, 8]: 16
- Resistance evaluation ([3]; mesotrione 52.5 g ai/ha): Non-resistant
- Scores ([3]; mesotrione 52.5 g ai/ha): 69
- Grade 0 (classification and statistics of the grade of pesticide damage; number of plants) ([3]; mesotrione 52.5 g ai/ha): 0
- Grade 1 (classification and statistics of the grade of pesticide damage; number of plants) ([3]; mesotrione 52.5 g ai/ha): 5
- Grade 2 (classification and statistics of the grade of pesticide damage; number of plants) ([3]; mesotrione 52.5 g ai/ha): 5
- Grade 3 (classification and statistics of the grade of pesticide damage; number of plants) ([3]; mesotrione 52.5 g ai/ha): 6
- Resistance evaluation ([3]; mesotrione 105 g ai/ha): Non-resistant
- Scores ([3]; mesotrione 105 g ai/ha): 100
- Grade 0 (classification and statistics of the grade of pesticide damage; number of plants) ([3]; mesotrione 105 g ai/ha): 0
- Grade 1 (classification and statistics of the grade of pesticide damage; number of plants) ([3]; mesotrione 105 g ai/ha): 0
- Grade 2 (classification and statistics of the grade of pesticide damage; number of plants) ([3]; mesotrione 105 g ai/ha): 0
- Grade 3 (classification and statistics of the grade of pesticide damage; number of plants) ([3]; mesotrione 105 g ai/ha): 16
- tolerance to HPPD-inhibitor herbicides (in words): isoxaflutole (soybean T1 plants [4]): different degrees of tolerance
- Classification and statistics of the grade of pesticide damage: Grade 0 ([5]; topramezone 25 g ai/ha (1×)): 7
- Classification and statistics of the grade of pesticide damage: Grade 1 ([5]; topramezone 25 g ai/ha (1×)): 6
- Classification and statistics of the grade of pesticide damage: Grade 2 ([5]; topramezone 25 g ai/ha (1×)): 3
- Classification and statistics of the grade of pesticide damage: Grade 3 ([5]; topramezone 25 g ai/ha (1×)): 0
- Classification and statistics of the grade of pesticide damage: Grade 0 ([5]; topramezone 100 g ai/ha (4×)): 0
- Classification and statistics of the grade of pesticide damage: Grade 1 ([5]; topramezone 100 g ai/ha (4×)): 0
- Classification and statistics of the grade of pesticide damage: Grade 2 ([5]; topramezone 100 g ai/ha (4×)): 0
- Classification and statistics of the grade of pesticide damage: Grade 3 ([5]; topramezone 100 g ai/ha (4×)): 16
- Scores ([5]; topramezone 25 g ai/ha (1×)): 25
- Scores ([5]; topramezone 100 g ai/ha (4×)): 100
- Resistance evaluation ([5]; topramezone 25 g ai/ha (1×)): moderately
- Resistance evaluation ([5]; topramezone 100 g ai/ha (4×)): non-resistant (non-resistant plants (scores 68-100))
- tolerance to HPPD-inhibitor herbicides (in words): mesotrione (soybean T1 plants [6]): different degrees of tolerance

Source: US20250043302A1, “MUTATED HYDROXYPHENYLPYRUVATE DIOXYGENASE POLYPEPTIDE, AND CODING GENE AND USE THEREOF” (BEIJING DABEINONG BIOTECHNOLOGY CO., LTD., priority 2021, published 2025)
